According to PMC6555819, “Comprehensive study of nuclear receptor DNA binding provides a revised framework for understanding receptor specificity”:

What follows are binders tested against RARg:RXRa (Homo sapiens, UniProt P13631;P19793 full;full) (assay: no ligand; PBM; 270 nM : 90 nM RXRa; PBS pH 7.4, 2% milk, 0.02% Triton X-100, 1 mM DTT, BSA, 0.4 mg/ml salmon testes DNA). Details: tags: His kept;His cleaved; copies: 1;1; label: surface-attached array probe.
Method in brief: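 Random background probes are the reference for binding z-scores. These scores derive from regression-normalized fluorescence on custom Agilent 4×180K protein-binding microarrays incubated 1 h with ligand-free nuclear receptor dimers. Binding was detected with antibodies against each partner (one per run).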

RARg:RXRa, sequence (P13631 whole entry, chain 1 of 2): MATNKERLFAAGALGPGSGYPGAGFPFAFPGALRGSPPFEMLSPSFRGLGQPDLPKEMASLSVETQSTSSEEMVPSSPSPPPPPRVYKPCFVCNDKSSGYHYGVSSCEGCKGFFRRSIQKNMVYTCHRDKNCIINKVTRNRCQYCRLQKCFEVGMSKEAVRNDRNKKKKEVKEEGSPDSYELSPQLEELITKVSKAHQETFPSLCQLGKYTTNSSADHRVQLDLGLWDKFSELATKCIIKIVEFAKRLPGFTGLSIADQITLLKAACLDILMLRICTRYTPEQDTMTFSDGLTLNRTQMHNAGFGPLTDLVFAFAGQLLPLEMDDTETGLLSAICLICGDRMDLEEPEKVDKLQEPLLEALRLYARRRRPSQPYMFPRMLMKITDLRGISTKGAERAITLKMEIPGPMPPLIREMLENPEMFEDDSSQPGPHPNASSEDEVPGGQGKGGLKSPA
RARg:RXRa, sequence (P19793 whole entry, chain 2 of 2): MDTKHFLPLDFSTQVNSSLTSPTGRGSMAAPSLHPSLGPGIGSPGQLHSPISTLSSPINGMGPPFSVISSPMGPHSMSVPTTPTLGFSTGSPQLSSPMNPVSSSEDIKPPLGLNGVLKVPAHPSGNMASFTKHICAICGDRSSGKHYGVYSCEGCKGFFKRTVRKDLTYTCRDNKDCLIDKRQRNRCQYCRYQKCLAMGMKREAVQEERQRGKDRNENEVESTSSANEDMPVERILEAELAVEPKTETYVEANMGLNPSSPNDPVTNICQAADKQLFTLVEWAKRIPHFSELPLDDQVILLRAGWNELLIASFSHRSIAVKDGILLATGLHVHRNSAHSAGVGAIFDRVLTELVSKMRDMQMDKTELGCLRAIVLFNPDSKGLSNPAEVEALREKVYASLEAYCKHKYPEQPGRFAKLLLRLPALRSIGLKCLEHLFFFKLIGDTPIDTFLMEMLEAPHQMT

Binder	binding signal
NRC3_wobSeed39_DR1_T23G_o1 (dsDNA) DNA 1: GCCGAACTAGGTCAAAGGACAGGGAAAGGCGACGTAGCGATTGACAGCGTAGAATGAAGG DNA 2: CCTTCATTCTACGCTGTCAATCGCTACGTCGCCTTTCCCTGTCCTTTGACCTAGTTCGGC	4.06 PBM z-score against 500 random probes
NRC3_wobSeed39_DR1_G17A_o1 (dsDNA) DNA 1: GCCGAACTAGGTCAAAAGACAGTGAAAGGCGACGTAGCGATTGACAGCGTAGAATGAAGG DNA 2: CCTTCATTCTACGCTGTCAATCGCTACGTCGCCTTTCACTGTCTTTTGACCTAGTTCGGC	3.41 PBM z-score against 500 random probes
NRC3_wobSeed112_DR4_G5T_o1 (dsDNA) DNA 1: GCTATCCTAGGTCAGATCGGGCCAGTATACGCTATAGCGATTGACAGCGTAGAATGAAGG DNA 2: CCTTCATTCTACGCTGTCAATCGCTATAGCGTATACTGGCCCGATCTGACCTAGGATAGC	3.16 PBM z-score against 500 random probes
NRC3_wobSeed38_DR1_A25C_o1 (dsDNA) DNA 1: GCCCTGCTAGGTCAATGGTCAGCTCAAGCAGCTCGCGCGATTGACAGCGTAGAATGAAGG DNA 2: CCTTCATTCTACGCTGTCAATCGCGCGAGCTGCTTGAGCTGACCATTGACCTAGCAGGGC	3.58 PBM z-score against 500 random probes
NRC3_wobSeed110_DR4_A9G_o1 (dsDNA) DNA 1: GCTCTGCTGGGTCAACGATGGTCAGCTAATCTGCTAGCGATTGACAGCGTAGAATGAAGG DNA 2: CCTTCATTCTACGCTGTCAATCGCTAGCAGATTAGCTGACCATCGTTGACCCAGCAGAGC	3.45 PBM z-score against 500 random probes
NRC3_wobSeed86_DR3_G15T_o1 (dsDNA) DNA 1: GCGCTGCTAGGTCATGTTGGTCAGCTAACGGGTACGGCGATTGACAGCGTAGAATGAAGG DNA 2: CCTTCATTCTACGCTGTCAATCGCCGTACCCGTTAGCTGACCAACATGACCTAGCAGCGC	3.75 PBM z-score against 500 random probes
NRC3_wobSeed123_DR5_A17C_o1 (dsDNA) DNA 1: GCCCTCGGAGGACAACCGGAGGTCAGAGCTGCCAGAGCGATTGACAGCGTAGAATGAAGG DNA 2: CCTTCATTCTACGCTGTCAATCGCTCTGGCAGCTCTGACCTCCGGTTGTCCTCCGAGGGC	3.83 PBM z-score against 500 random probes
NRC3_wobSeed123_DR5_G21T_o1 (dsDNA) DNA 1: GCCCTCGGAGGACAACAGGATGTCAGAGCTGCCAGAGCGATTGACAGCGTAGAATGAAGG DNA 2: CCTTCATTCTACGCTGTCAATCGCTCTGGCAGCTCTGACATCCTGTTGTCCTCCGAGGGC	0.5 PBM z-score against 500 random probes
NRC3_wobSeed45_DR1_T11C_o1 (dsDNA) DNA 1: GCTGTCAAAGCTCAAAGGTAACGTAAGTATCCACACGCGATTGACAGCGTAGAATGAAGG DNA 2: CCTTCATTCTACGCTGTCAATCGCGTGTGGATACTTACGTTACCTTTGAGCTTTGACAGC	0.5 PBM z-score against 500 random probes
NRC3_wobSeed3_DR0_A22G_o1 (dsDNA) DNA 1: GCGCTCGGAGGACAAGGTCAGGGCTTTGTCCGTAGAGCGATTGACAGCGTAGAATGAAGG DNA 2: CCTTCATTCTACGCTGTCAATCGCTCTACGGACAAAGCCCTGACCTTGTCCTCCGAGCGC	3.61 PBM z-score against 500 random probes
NRC3_wobSeed88_DR3_T25C_o1 (dsDNA) DNA 1: GCTAGCCTAGGTCATGCGGGCCAGCATAGTGTCGGCGCGATTGACAGCGTAGAATGAAGG DNA 2: CCTTCATTCTACGCTGTCAATCGCGCCGACACTATGCTGGCCCGCATGACCTAGGCTAGC	3.97 PBM z-score against 500 random probes
NRC3_wobSeed88_DR3_A4G_o1 (dsDNA) DNA 1: GCTGGCCTAGGTCATGCGGGCCAGTATAGTGTCGGCGCGATTGACAGCGTAGAATGAAGG DNA 2: CCTTCATTCTACGCTGTCAATCGCGCCGACACTATACTGGCCCGCATGACCTAGGCCAGC	3.93 PBM z-score against 500 random probes
NRC3_wobSeed15_DR0_G16C_o1 (dsDNA) DNA 1: GCCGAACTAGGTCAACGACAGTGAATCTCCGCACGCGCGATTGACAGCGTAGAATGAAGG DNA 2: CCTTCATTCTACGCTGTCAATCGCGCGTGCGGAGATTCACTGTCGTTGACCTAGTTCGGC	3.81 PBM z-score against 500 random probes
NRC3_wobSeed75_DR3_A25C_o1 (dsDNA) DNA 1: GCTCTCGGAGGACACGAAGGTCAGCGCTTTCCAGAGGCGATTGACAGCGTAGAATGAAGG DNA 2: CCTTCATTCTACGCTGTCAATCGCCTCTGGAAAGCGCTGACCTTCGTGTCCTCCGAGAGC	3.49 PBM z-score against 500 random probes
NRC3_wobSeed74_DR3_C13G_o1 (dsDNA) DNA 1: GCTCTAGTTGGTGACGGAGGTCACACACGACGGGTAGCGATTGACAGCGTAGAATGAAGG DNA 2: CCTTCATTCTACGCTGTCAATCGCTACCCGTCGTGTGTGACCTCCGTCACCAACTAGAGC	3.87 PBM z-score against 500 random probes
NRC3_wobSeed72_DR2_A9G_o1 (dsDNA) DNA 1: GCTCGAGTGGGTTACGGGGGCATTCAGGGATGAAGAGCGATTGACAGCGTAGAATGAAGG DNA 2: CCTTCATTCTACGCTGTCAATCGCTCTTCATCCCTGAATGCCCCCGTAACCCACTCGAGC	3.31 PBM z-score against 500 random probes
NRC3_wobSeed72_DR2_C15G_o1 (dsDNA) DNA 1: GCTCGAGTAGGTTAGGGGGGCATTCAGGGATGAAGAGCGATTGACAGCGTAGAATGAAGG DNA 2: CCTTCATTCTACGCTGTCAATCGCTCTTCATCCCTGAATGCCCCCCTAACCTACTCGAGC	3.1 PBM z-score against 500 random probes

Binder	binding signal
NRC3_wobSeed58_DR2_A7T_o1 (dsDNA) DNA 1: GCATCGTAAGGTCGTGAGGTGAGTATACAGAAAGGCGCGATTGACAGCGTAGAATGAAGG DNA 2: CCTTCATTCTACGCTGTCAATCGCGCCTTTCTGTATACTCACCTCACGACCTTACGATGC	3.36 PBM z-score against 500 random probes
NRC3_wobSeed87_DR3_C17G_o1 (dsDNA) DNA 1: GCCGAACTAGGTCATCGAGGACAGTGAATACATTGAGCGATTGACAGCGTAGAATGAAGG DNA 2: CCTTCATTCTACGCTGTCAATCGCTCAATGTATTCACTGTCCTCGATGACCTAGTTCGGC	4.03 PBM z-score against 500 random probes
NRC3_wobSeed62_DR2_T16G_o1 (dsDNA) DNA 1: GCTCTGCTAGGTCAGGTGGTCAGCTAACGAGCTGCCGCGATTGACAGCGTAGAATGAAGG DNA 2: CCTTCATTCTACGCTGTCAATCGCGGCAGCTCGTTAGCTGACCACCTGACCTAGCAGAGC	3.05 PBM z-score against 500 random probes
NRC3_wobSeed101_DR4_A24C_o1 (dsDNA) DNA 1: GCCCTTACGGGTCACTCCAGGTTCTAGCATCGGAGTGCGATTGACAGCGTAGAATGAAGG DNA 2: CCTTCATTCTACGCTGTCAATCGCACTCCGATGCTAGAACCTGGAGTGACCCGTAAGGGC	4.14 PBM z-score against 500 random probes
NRC3_wobSeed5_DR0_A15G_o1 (dsDNA) DNA 1: GCCCTTACGGGTCAGGGTTATAGCACGGGTGGTACGGCGATTGACAGCGTAGAATGAAGG DNA 2: CCTTCATTCTACGCTGTCAATCGCCGTACCACCCGTGCTATAACCCTGACCCGTAAGGGC	3.72 PBM z-score against 500 random probes
NRC3_wobSeed76_DR3_A16T_o1 (dsDNA) DNA 1: GCCCTACTGGGCCAATAAGGTCATTGATGCCGATAAGCGATTGACAGCGTAGAATGAAGG DNA 2: CCTTCATTCTACGCTGTCAATCGCTTATCGGCATCAATGACCTTATTGGCCCAGTAGGGC	3.2 PBM z-score against 500 random probes
NRC3_wobSeed34_DR1_T19A_o1 (dsDNA) DNA 1: GCATCGAAAGGTCGAAGGAGAGTATACCCACCCGAAGCGATTGACAGCGTAGAATGAAGG DNA 2: CCTTCATTCTACGCTGTCAATCGCTTCGGGTGGGTATACTCTCCTTCGACCTTTCGATGC	3.65 PBM z-score against 500 random probes
NRC3_wobSeed34_DR1_G17A_o1 (dsDNA) DNA 1: GCATCGAAAGGTCGAAAGTGAGTATACCCACCCGAAGCGATTGACAGCGTAGAATGAAGG DNA 2: CCTTCATTCTACGCTGTCAATCGCTTCGGGTGGGTATACTCACTTTCGACCTTTCGATGC	3.26 PBM z-score against 500 random probes
NRC3_wobSeed64_DR2_o1 (dsDNA) DNA 1: GCTAGCCTAGGTCATTGGGCCAGTATAGTACGCATCGCGATTGACAGCGTAGAATGAAGG DNA 2: CCTTCATTCTACGCTGTCAATCGCGATGCGTACTATACTGGCCCAATGACCTAGGCTAGC	3.78 PBM z-score against 500 random probes
NRC3_wobSeed64_DR2_G17T_o1 (dsDNA) DNA 1: GCTAGCCTAGGTCATTTGGCCAGTATAGTACGCATCGCGATTGACAGCGTAGAATGAAGG DNA 2: CCTTCATTCTACGCTGTCAATCGCGATGCGTACTATACTGGCCAAATGACCTAGGCTAGC	3.69 PBM z-score against 500 random probes
NRC3_wobSeed64_DR2_C21T_o1 (dsDNA) DNA 1: GCTAGCCTAGGTCATTGGGCTAGTATAGTACGCATCGCGATTGACAGCGTAGAATGAAGG DNA 2: CCTTCATTCTACGCTGTCAATCGCGATGCGTACTATACTAGCCCAATGACCTAGGCTAGC	3.53 PBM z-score against 500 random probes
NRC3_wobSeed4_DR0_T25G_o1 (dsDNA) DNA 1: GCCCTACTGGGCCAAGGTCATTGAGCAGTCAAAGCAGCGATTGACAGCGTAGAATGAAGG DNA 2: CCTTCATTCTACGCTGTCAATCGCTGCTTTGACTGCTCAATGACCTTGGCCCAGTAGGGC	3.95 PBM z-score against 500 random probes
NRC3_wobSeed82_DR3_T4A_o1 (dsDNA) DNA 1: GCAACGAAAGGTCGACGAGGTGAGTATACACCGTTTGCGATTGACAGCGTAGAATGAAGG DNA 2: CCTTCATTCTACGCTGTCAATCGCAAACGGTGTATACTCACCTCGTCGACCTTTCGTTGC	4.09 PBM z-score against 500 random probes
NRC3_wobSeed82_DR3_G10C_o1 (dsDNA) DNA 1: GCATCGAAACGTCGACGAGGTGAGTATACACCGTTTGCGATTGACAGCGTAGAATGAAGG DNA 2: CCTTCATTCTACGCTGTCAATCGCAAACGGTGTATACTCACCTCGTCGACGTTTCGATGC	0.46 PBM z-score against 500 random probes
NRC3_wobSeed82_DR3_T21A_o1 (dsDNA) DNA 1: GCATCGAAAGGTCGACGAGGAGAGTATACACCGTTTGCGATTGACAGCGTAGAATGAAGG DNA 2: CCTTCATTCTACGCTGTCAATCGCAAACGGTGTATACTCTCCTCGTCGACCTTTCGATGC	4.02 PBM z-score against 500 random probes
NRC3_wobSeed57_DR2_T19G_o1 (dsDNA) DNA 1: GCATCTCTAGGTAACAAGGTCAGTGAAAGAGAGGACGCGATTGACAGCGTAGAATGAAGG DNA 2: CCTTCATTCTACGCTGTCAATCGCGTCCTCTCTTTCACTGACCTTGTTACCTAGAGATGC	3 PBM z-score against 500 random probes
